One block for each binder: values may come before it.
Biological target: T1, human GITR on cells (human, UniProt Q9Y5U5 26-241)
T1 chain: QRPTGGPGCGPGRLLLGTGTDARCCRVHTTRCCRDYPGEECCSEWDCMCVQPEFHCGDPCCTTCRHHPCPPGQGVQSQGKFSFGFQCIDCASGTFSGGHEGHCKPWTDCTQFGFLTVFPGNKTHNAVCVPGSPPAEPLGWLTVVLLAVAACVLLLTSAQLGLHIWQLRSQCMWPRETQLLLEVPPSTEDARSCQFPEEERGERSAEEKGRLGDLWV
Test: FACS binding to anti-CD3/CD28-activated human CD4 T cells

- EC50: 0.163 nM
B1: anti-GITR-IgG2-IgG1.1 (antibody)
heavy: QVQLVESGGGVVQPGRSLRLSCAASGFTFSSYGMHWVRQAPGKGLEWVAVIWYEGSNKYYADSVKGRFTISRDNSKNTLYLQMNSLRAEDTAVYYCARGGSMVRGDYYYGMDVWGQGTTVTVSSASTKGPSVFPLAPCSRSTSESTAALGCLVKDYFPEPVTVSWNSGALTSGVHTFPAVLQSSGLYSLSSVVTVPSSNFGTQTYTCNVDHKPSNTKVDKTVERKCCVECPPCPAPPVAGPSVFLFPPKPKDTLMISRTPEVTCVVVDVSHEDPEVKFNWYVDGVEVHNAKTKPREEQYNSTYRVVSVLTVLHQDWLNGKEYKCKVSNKALPSSIEKTISKAKGQPREPQVYTLPPSREEMTKNQVSLTCLVKGFYPSDIAVEWESNGQPENNYKTTPPVLDSDGSFFLYSKLTVDKSRWQQGNVFSCSVMHEALHNHYTQKSLSLSPG
light: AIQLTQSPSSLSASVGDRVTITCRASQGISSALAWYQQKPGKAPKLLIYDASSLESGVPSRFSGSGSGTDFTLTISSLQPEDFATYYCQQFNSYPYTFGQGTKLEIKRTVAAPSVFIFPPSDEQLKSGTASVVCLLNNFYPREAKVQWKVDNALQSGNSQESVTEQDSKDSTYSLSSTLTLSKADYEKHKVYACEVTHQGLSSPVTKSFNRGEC

- EC50: 0.277 nM
B2: anti-GITR-IgG2 (antibody)
heavy: QVQLVESGGGVVQPGRSLRLSCAASGFTFSSYGMHWVRQAPGKGLEWVAVIWYEGSNKYYADSVKGRFTISRDNSKNTLYLQMNSLRAEDTAVYYCARGGSMVRGDYYYGMDVWGQGTTVTVSSASTKGPSVFPLAPCSRSTSESTAALGCLVKDYFPEPVTVSWNSGALTSGVHTFPAVLQSSGLYSLSSVVTVPSSNFGTQTYTCNVDHKPSNTKVDKTVERKCCVECPPCPAPPVAGPSVFLFPPKPKDTLMISRTPEVTCVVVDVSHEDPEVQFNWYVDGVEVHNAKTKPREEQFNSTFRVVSVLTVVHQDWLNGKEYKCKVSNKGLPAPIEKTISKTKGQPREPQVYTLPPSREEMTKNQVSLTCLVKGFYPSDIAVEWESNGQPENNYKTTPPMLDSDGSFFLYSKLTVDKSRWQQGNVFSCSVMHEALHNHYTQKSLSLSPGK
light: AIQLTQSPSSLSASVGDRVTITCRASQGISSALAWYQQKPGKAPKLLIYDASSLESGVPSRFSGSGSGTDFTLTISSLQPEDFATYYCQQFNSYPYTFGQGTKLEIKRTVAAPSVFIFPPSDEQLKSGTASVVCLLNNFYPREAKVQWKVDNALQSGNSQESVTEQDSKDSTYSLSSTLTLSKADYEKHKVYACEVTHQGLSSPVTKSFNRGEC

Reference: US20220106400A1 (published 2022)
